The values that follow come from PMC7181604, “Arabidopsis FHY3 and FAR1 integrate light and strigolactone signaling to regulate branching”.

One data set has as its target T1, His-FHY3-I (Arabidopsis thaliana, UniProt Q9LIE5 1-251).
T1 sequence: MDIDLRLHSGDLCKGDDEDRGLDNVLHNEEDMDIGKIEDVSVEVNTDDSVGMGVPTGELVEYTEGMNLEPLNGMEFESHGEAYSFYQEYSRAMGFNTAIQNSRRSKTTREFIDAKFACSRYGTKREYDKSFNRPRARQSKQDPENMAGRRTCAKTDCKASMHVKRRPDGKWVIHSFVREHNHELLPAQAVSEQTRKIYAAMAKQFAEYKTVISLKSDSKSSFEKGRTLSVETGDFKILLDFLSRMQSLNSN
Put plainly: EMSA; FHY3-I alone; Beyotime EMSA kit, manufacturer's protocol (binding buffer not stated); proteins stored in 5 mM Tris-Cl pH 8.0, 50 mM KCl. The conditions noted are these: protein: recombinant; tags: 6xHis (pET28a); label: biotin; blunt. In general terms: Mobility shift assays separate free from complexed probe on a gel.

A further data set addresses T2, GST-SPL15SBP (Arabidopsis thaliana, UniProt Q9M2Q6 56-133).
T2 sequence: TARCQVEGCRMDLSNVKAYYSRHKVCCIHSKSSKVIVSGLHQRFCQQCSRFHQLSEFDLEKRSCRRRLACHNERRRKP
Nature of the data set: EMSA; Beyotime EMSA kit, manufacturer's protocol (binding buffer not stated); proteins stored in 5 mM Tris-Cl pH 8.0, 50 mM KCl. The conditions noted are these: protein: recombinant; tags: GST (N-terminal, pGEX-4T-1); label: biotin; blunt.

For another data set, the target named is T3, GST-SPL9SBP (Arabidopsis thaliana, UniProt Q700W2 71-148).
T3 sequence: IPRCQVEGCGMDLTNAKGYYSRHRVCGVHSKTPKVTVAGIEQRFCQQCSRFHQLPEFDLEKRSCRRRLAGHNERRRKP
Described as above. The conditions noted are these: protein: recombinant; tags: GST (N-terminal, pGEX-4T-1); label: biotin; blunt.

B1: BRC1 promoter EMSA probe (PB01/PB02) (dsDNA)
DNA 1: GAAGAAGCCAGCGAGTCCAACCATTATAGTCATGTGGTCCTCCTGATAATTGCAGGCCTA
DNA 2: TAGGCCTGCAATTATCAGGAGGACCACATGACTATAATGGTTGGACTCGCTGGCTTCTTC
On to B1, for which the binding result is “no binding” with His-FHY3-I, “binds” in the data set with GST-SPL15SBP and “binds” in the data set with GST-SPL9SBP.
